T1: GST-dSNAP-29 (Drosophila, UniProt Q9W1I8 1-284)
T1 construct: Drosophila SNAP-29 (CG11173, ubisnap/usnp), full-length cDNA amplified from EST clone LD17127 and subcloned into pGEX-KG; predicted mass 32 kDa; Vector pGEX-KG; also called GST-SNAP-29; Drosophila SNAP-29; source: coupled to glutathione beads
T1 sequence (looked up): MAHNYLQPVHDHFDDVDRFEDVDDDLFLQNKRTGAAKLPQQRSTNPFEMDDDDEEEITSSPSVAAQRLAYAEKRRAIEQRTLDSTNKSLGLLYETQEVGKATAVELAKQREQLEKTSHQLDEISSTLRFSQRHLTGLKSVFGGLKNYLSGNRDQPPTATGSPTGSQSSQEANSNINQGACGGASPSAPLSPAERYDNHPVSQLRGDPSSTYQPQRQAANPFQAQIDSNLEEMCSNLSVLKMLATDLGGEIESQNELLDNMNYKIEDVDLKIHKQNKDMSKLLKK


Target: T1, GST-dSNAP-29
Experiment: pull-down; 0.5 mg GST fusion or GST on 120 uL glutathione beads, incubated with pre-cleared S2 cell lysate (PLC or NP40 lysis buffer, 0.1% gelatin, 0.1% BSA); washes 50 mM HEPES pH 7.5, 150 mM NaCl, 2 mM EDTA; western blot
Settings: for percent recovered from the lysate: one partner purified

| Molecule | percent pulled down from the lysate [%] | percent recovered from the lysate [%] |
| --- | --- | --- |
| dsyntaxin1, endogenous (natural protein, UniProt Q24547 1-291, looked up, Drosophila syntaxin 1, endogenous in S2 cells (pull-down) and in embryos (co-IP); also called dSyx1; source: endogenous, S2 cell lysate; endogenous, Oregon R embryo lysate) MTKDRLAALHAAQSDDEEETEVAVNVDGHDSYMDDFFAQVEEIRGMIDKVQDNVEEVKKKHSAILSAPQTDEKTKQELEDLMADIKKNANRVRGKLKGIEQNIEQEEQQNKSSADLRIRKTQHSTLSRKFVEVMTEYNRTQTDYRERCKGRIQRQLEITGRPTNDDELEKMLEEGNSSVFTQGIIMETQQAKQTLADIEARHQDIMKLETSIKELHDMFMDMAMLVESQGEMIDRIEYHVEHAMDYVQTATQDTKKALKYQSKARRKKIMILICLTVLGILAASYVSSYFM | – | 6 |
| dSNAP (Drosophila soluble NSF attachment protein), endogenous (natural protein, Drosophila (endogenous in S2 cells), UniProt Q23983 1-292, looked up, Drosophila SNAP (soluble NSF attachment protein), endogenous in Schneider S2 cells; also called Drosophila SNAP; source: endogenous, S2 cell lysate) MGDNEQKALQLMAEAEKKLTQQKGFLGSLFGGSNKVEDAIECYQRAGNMFKMSKNWTKAGECFCEAATLHARAGSRHDAGTCYVDASNCYKKVDVESAVNCLMKSIDIYTDMGRFTMAAKHHQSIAEMYESDPNNLAKSIQHYEQAADYFKGEESVSSANKCMLKVAQYAAQLEDYEKAISIYEQVAASSLESSLLKYSAKEYFFRAALCHLSVDLLNAQHAIEKYAQQYPAFQDSREFKLIKVLCENLEEQNIEGFTEAVKDYDSISRLDQWYTTILLRIKKAADEDPDLR | – | ~7 |
| dsyntaxin 16, endogenous (natural protein, UniProt Q9VR90 1-352, looked up, Drosophila syntaxin 16, endogenous in S2 cells (pull-down) and in embryos (co-IP); also called dSyx16; dSyx 16; source: endogenous, S2 cell lysate; endogenous, Oregon R embryo lysate) MTSRNLTEVFVIMRNNASKNRNHYDDRRGSDAERLLKHSVREAEEGLELQDDYGTPPAWLDKFEEAQYTMSKIKPKLDELGSLHARHLLRPAFDDQRDDECDIEVLSQIVSKLITSTHRHIQCVRSSIGVGSKMEQCLTVNAVHCALLQLQELTVKFRASQNAYLLQLNSREERSQKYFDDGGGAGAGDVFTNVELGEQSAENFVDSFDNFLQPPAEGKSGNGYLFEDDEQAIDDHFQRPPASRMTQQQLLLFEEENTRVAQHREQEVTKIVKSIYDLNDIFKDLGHMVQEQGTVLDRIDYNVEQTQTRVSEGLRQLHKAEMYQRKNRKMCVILVLAAVTFFMLLLLILTKL | – | 4 |

Second part, the molecule after the results:

| percent pulled down from the lysate [%] | percent recovered from the lysate [%] | Molecule |
| --- | --- | --- |
| 15 | – | DAP160, endogenous (natural protein) |
| 12 | – | dEHD1, endogenous (natural protein) |
